Source: publication doi:10.1101/2025.09.22.677689

Target: preformed TPX2-NLS - importin α ΔIBB complex (mouse) (UniProt A2APB8)
Test: pull-down; competition: GST-TPX2 NLS on magnetic glutathione beads first incubated with importin α ΔIBB, washed, then increasing concentrations of CFDP1 proteins in transfer buffer, 1 h at 4°C; SDS-PAGE with Coomassie stain or immunoblot

Substance: CFDP1 basic C-terminal fragment (aa 150-295), HIS tagged (from UniProt O88271 150-295) (domain or fragment)
- percent decrease of TPX2 bound importin α: 11%
